Here are results for nine molecules from patent US20170015742A1 (published 2017).

The term Kd denotes the constant that tells how readily two partners part at equilibrium. Read a high Kd as weaker binding. Usually kon stands for the second-order rate constant of association. As a reminder, the IC50 is the concentration needed to halve the response being measured.

Where a chain is given by its changes, count along the chain named.

The target of experiment [1] is T1, Human PDGF-BB (human, UniProt P01127 82-190).
T1 construct: Recombinant human PDGF-BB, a dimer of two B chains; also called huPDGF-BB; hPDGF-BB
Kind of experiment: Biacore SPR (Example 1.1); first of two rows for this clone. The method, then: (§1) Unreacted moieties on the biosensor surface were blocked with ethanolamine. For kinetic analysis, rate equations derived from the 1:1 Langmuir binding model were fitted simultaneously to multiple antigen injections (using global fit analysis) with the use of Scrubber 2 (BioLogic Software), Biacore Biaevaluation 4.0.1 software or Biacore T100 Evaluation software. Purified antibodies or DVD-Ig molecules were diluted in running buffer for capture across goat anti-human Fc reaction surfaces. Antibodies or DVD-Ig molecules to be captured as a ligand (1 μg/ml) were injected over reaction matrices at a flow rate of 10 μl/minute. During the assay, all measurements were referenced against the capture surface alone (i.e., with no captured antibody or DVD-Ig molecule). […] The equilibrium dissociation constant KD (M) of the reaction between antibodies and the target antigen was then calculated from the kinetic rate constants by the following formula: KD=Koff/Kₒₙ. Binding was recorded as a function of time and kinetic rate constants were calculated. In this assay, on-rates as fast as 10⁶M⁻¹s⁻¹ and off-rates as slow as 10⁻⁶ s⁻¹ could be measured.
For orientation: In SPR one partner is held on a chip, and binding of the other changes the refractive index at the surface.

The target in experiment [2] is T1, Human PDGF-BB. As to the kind of experiment: Biacore SPR (Example 1.1); second of two rows for this clone. The procedure:
as §1

Experiment [3] addresses T2, recombinant human PDGF-Rβ-Fc (R&D Systems #385-PR) (human, UniProt P09619 33-530).
T2 construct: Bought reagent; also called hPDGFRβ-Fc; huPDGF Rβ; not shown: Fc part of the bought fusion protein
As to the kind of experiment: competition ELISA: antibody on coated hPDGFRβ-Fc against hPDGF-BB-biotin (Example 1.27). The procedure:
Plates were then washed four times with wash buffer (TBS, 0.05% Tween-20) and blocked with Superblock blocking buffer (Thermo Scientific, cat#37535). During the blocking step, supernatants, antibodies and benchmark compounds were diluted in assay diluent (10% Superblock containing 0.05% surfactamps) and an eight point titration of each sample molecule was performed. The samples were added to wells and incubated for 30 minutes at 25° C. with shaking. […] This was added to wells (10 ng/mL/3.97E-10 M final concentration) and incubation was continued for 35 minutes at 25° C. with shaking. Following incubation, plates were washed four times with wash buffer. Detection reagent Streptavidin-polyHRP-40 (Fitzgerald, cat#65r-s104phrp) was diluted in assay diluent and added to plates (50 μL) for 45 minutes at 25° C. with shaking. Plates were washed four times with wash buffer and developed with the addition of Enhanced K-blue TMB substrate (Neogen, cat#308177). The reaction was stopped with 2N sulfuric acid (VWR, cat# BDH3500-1) and the absorbance was read at 450 nm-570 nm. […] Data was analyzed using Softmax Pro 4.8 software and IC₅₀ values calculated using a sigmoidal dose response (variable slope) fit in GraphPad Prism 5.
On the technique in general: ELISA stands for enzyme-linked immunosorbent assay.

The target of experiment [4] is T1, Human PDGF-BB. Kind of experiment: Biacore SPR (Example 1.1). The method, then: as §1
In experiment [5] the target is T1, Human PDGF-BB. As to the kind of experiment: Biacore SPR (Example 1.1); footnote **: heterogeneous off-rate. The method, then: as §1
The target of experiment [6] is T3, recombinant human VEGF-R2-Fc (R&D Systems cat#357-KD) (human, UniProt P35968 20-764).
T3 construct: Bought reagent; also called hVEGFR2-Fc; hVEGF-R2 (KDR/Flk-1); not shown: Fc part of the bought fusion protein
Kind of experiment: direct binding ELISA on coated recombinant human VEGF-R2-Fc (Example 1.22). The method, then:
Plates were then washed four times with wash buffer (TBS, 0.05% Tween-20) and blocked with Superblock blocking buffer (Thermo Scientific, cat#37535). […] Following incubation, plates were washed four times with wash buffer. […] Plates were washed four times with wash buffer and developed with the addition of Enhanced K-blue TMB substrate (Neogen cat#308177). The reaction was stopped with 2N sulfuric acid (VWR, cat# BDH3500-1) and the absorbance was read at 450 nm-570 nm. […] Data was analyzed using Softmax Pro 4.8 software and IC₅₀ values calculated using a sigmoidal dose response (variable slope) fit in GraphPad Prism 5.

Experiment [7] deals with T1, Human PDGF-BB. As to the kind of experiment: cell-based or functional assay.
For experiment [8], the target named is T1, Human PDGF-BB. Kind of experiment: competition ELISA: huPDGF-BB-biotin binding to coated huPDGF-Rβ-Fc (Example 1.13). The method, then:
Plates were then washed four times with wash buffer (TBS, 0.05% Tween-20) and blocked with Superblock blocking buffer (Thermo Scientific, cat#37535). During the blocking step, supernatants, antibodies, benchmark compounds or DVD-Ig were diluted in assay diluent (10% Superblock containing 0.05% surfactamps) and an eight point titration of each sample molecule was performed. […] Following incubation, plates were washed four times with wash buffer. Detection reagent Streptavidin-polyHRP-40 (Fitzgerald, cat#65r-s104phrp) was diluted in assay diluent and added to plates (50 μL) for 45 minutes at 25° C. with shaking. Plates were washed four times with wash buffer and developed with the addition of Enhanced K-blue TMB substrate (Neogen, cat#308177). The reaction was stopped with 2N sulfuric acid (VWR, cat# BDH3500-1) and the absorbance was read at 450 nm-570 nm. […] Data was analyzed using Softmax Pro 4.8 software and IC₅₀ values calculated using a sigmoidal dose response (variable slope) fit in GraphPad Prism 5.

T1 sequence (P01127 82-190 limits assumed): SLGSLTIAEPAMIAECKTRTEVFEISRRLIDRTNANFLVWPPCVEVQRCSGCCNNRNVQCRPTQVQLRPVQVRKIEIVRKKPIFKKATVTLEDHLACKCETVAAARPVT
T2 sequence (P09619 33-530 limits assumed): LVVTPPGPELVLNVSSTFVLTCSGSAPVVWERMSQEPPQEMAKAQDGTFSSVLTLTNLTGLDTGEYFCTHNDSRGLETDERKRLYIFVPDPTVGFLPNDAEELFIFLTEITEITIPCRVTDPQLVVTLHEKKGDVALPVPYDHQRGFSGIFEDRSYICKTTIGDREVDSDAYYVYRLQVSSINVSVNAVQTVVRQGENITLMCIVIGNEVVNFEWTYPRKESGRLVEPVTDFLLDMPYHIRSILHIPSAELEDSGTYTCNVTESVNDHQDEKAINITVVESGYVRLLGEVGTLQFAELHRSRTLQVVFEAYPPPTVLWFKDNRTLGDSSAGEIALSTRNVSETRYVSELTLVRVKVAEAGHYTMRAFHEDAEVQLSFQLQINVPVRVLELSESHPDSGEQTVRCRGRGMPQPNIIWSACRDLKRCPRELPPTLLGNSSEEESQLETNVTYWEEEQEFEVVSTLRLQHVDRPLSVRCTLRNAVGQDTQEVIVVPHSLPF
T3 sequence (P35968 20-764 limits assumed): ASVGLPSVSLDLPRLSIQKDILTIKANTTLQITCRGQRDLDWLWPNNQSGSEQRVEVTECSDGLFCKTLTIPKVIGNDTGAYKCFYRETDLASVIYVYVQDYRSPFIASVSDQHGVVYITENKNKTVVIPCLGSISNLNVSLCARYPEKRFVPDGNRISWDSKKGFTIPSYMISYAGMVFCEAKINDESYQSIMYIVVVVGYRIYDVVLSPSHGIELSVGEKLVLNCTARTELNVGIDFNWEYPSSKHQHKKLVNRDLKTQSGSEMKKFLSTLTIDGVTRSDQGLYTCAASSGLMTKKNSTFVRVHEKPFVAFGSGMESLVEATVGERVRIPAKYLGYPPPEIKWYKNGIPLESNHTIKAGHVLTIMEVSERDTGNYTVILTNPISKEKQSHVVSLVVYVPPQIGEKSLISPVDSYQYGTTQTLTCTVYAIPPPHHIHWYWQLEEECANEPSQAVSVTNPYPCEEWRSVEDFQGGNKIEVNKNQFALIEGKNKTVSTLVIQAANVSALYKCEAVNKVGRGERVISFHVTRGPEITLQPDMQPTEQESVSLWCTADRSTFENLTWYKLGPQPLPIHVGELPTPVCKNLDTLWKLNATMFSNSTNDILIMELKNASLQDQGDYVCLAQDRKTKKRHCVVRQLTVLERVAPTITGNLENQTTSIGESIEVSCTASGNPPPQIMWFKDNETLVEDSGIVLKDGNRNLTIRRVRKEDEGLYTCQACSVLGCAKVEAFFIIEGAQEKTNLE

B1: BDI-9E8-E7 (antibody, V domains shown)
VH: QVTLKESGPGILQPSQTLSLTCTFSGFSLSTYGMGVGWIRQPSGKGLEWLANIWWDDDKYYNPSLKNRLTISKDTSNNQAFLKITNVDTADTATYYCARIESIGTTYSFDYWGQGVMVTVSS
VL: QFTLTQPKSVSGSLRSTITIPCERSSGDIGDSYVSWYQQHLGRPPINVIYADDQRPSEVSDRFSGSIDSSSNSASLTITNLQMDDEADYFCQSYDINIDIVFGGGTKLTVL
As for B1, in the experiment with Human PDGF-BB [1], the Kd was at most 0.058 pM and the kon is at least 1.7e+07 M⁻¹ s⁻¹. Further, in the experiment with Human PDGF-BB [2], the Kd is at most 0.1 pM and the kon is at least 1e+07 M⁻¹ s⁻¹.

B2: BDE-4F2-D4 (antibody, V domains shown)
VH: QVQLKESGPGLMQPSQTLSLTCTVSGFSLTNYGVSWVRQFPGKGLEWIAAISSGGSTYYNSALKSRLSISRDTSRSQVFLKMNSLLTEDTAFYFCTRVYYGSNYFDYWGPGVMVTVSS
VL: DIVMTQTPSSQAVSAGEKVTMSCKSSQSLLYGGDQKNFLAWYQQKPGQSPKLLIYLASTRESGVPDRFIGSGSGTDFTLTISSVQAEDLADYYCQQHYGYPFTFGSGTKLEIK
notes: Rat hybridoma anti-human PDGFR-B monoclonal antibody, isotype IgG2a/κ
Take B2: the concentration for half-maximal inhibition (IC50) in experiment [3] was 527 pM.

B3: BDI-6A3-A9 (antibody, V domains shown)
VH: EVQLVESGGGLVQPGRSLKFSCAASGFSFSDSAMAWVRQAPKKGLEWVATIIYDGSGTYYRDSVKGRFTISRDNAKSTLYLQMDSLRSEDTATYYCARLGFNYGNYGYYVMDAWGQGASVTVSS
VL: QFTLTQPKSVSGSLRNTITIPCERSSGDIGDSYVSWYQQHLGRPPINVIFADDQRPSEVSDRFSGSIDSSSNSASLTITNLQMDDEADYFCQSYDSNIDINIVFGGGTKLTVL
In the experiment with Human PDGF-BB [4], B3 registered a kon of at least 1e+07 M⁻¹ s⁻¹. In addition, in the experiment with Human PDGF-BB [5], the dissociation constant Kd was at most 670 pM.

B4: BDE-3C9-G4 (antibody, V domains shown)
VH: EVQLVESGGGLVQPGRSLKLSCAASGFTFSNYGMAWVRQAPTQGLEWVASITNSGGNTYYRDSVKGRFTISRDSAKNTQYLQMDSLRSEDTATYFCARHTPGANYFDYWGQGLMVTVSS
VL: DIQMTQSPPSLSASLGEKVTITCQASQSIKNYIAWYQLKPGTAPRLLMRYTSTLESGTPSRFSGSGSGRDYSFSISNVESEDIASYYCVQYANLYTFGGGTKLELK
notes: Rat hybridoma anti-human PDGFR-B monoclonal antibody, isotype IgG2b/κ
For B4, the IC50 in experiment [3] is 832 pM.

B5: BDI-1E1-D5 (antibody, V domains shown)
VH: EVKLQQSGDELVRPGASVKMSCKASGYTFTDYVMHWVKQSPGQGLEWIGTIIPLIDTTSYNQKFKGKATLTADKSSNTAYMELSRLTSEDSAVYYCARTSPYYYSSYDVMDAWGQGASVTVSS
VL: NIQLTQSPSLLSASVGDRVTLSCKGSQNINNYLAWYQQKLGEAPKLLIYKTNNLQTGIPSRFSGCGSGTDYTLTISSLHSEDLATYYCYQYDNGYTFGAGTKLELK
Molecule B5 returned a kon in the experiment with Human PDGF-BB [4] of at least 1e+07 M⁻¹ s⁻¹. Besides, in the experiment with Human PDGF-BB [5], the dissociation constant (Kd) is at most 37 pM.

B6: BCU-7A6-C2 (antibody, V domains shown)
VH: EVQLVESGGGLVQPRGSLKLSCAASGFDFNSYGMSWVRQAPGKGLDLVADISSKSYNYATYYADSVKDRFTISRDDSQSMVYLQMDNLKTEDTALYYCTESLELGGAYWGQGTLVTVSS
VL: DIQMTQSPPSLSASLGDEVTITCQASQNINKFIAWYQQKPGKAPRLLIRYTSTLKSGTPSRFSGSGSGRDYSFSISNVESEDIASYYCLQYDSLPWTFGGGTKLELK
notes: Rat hybridoma anti-human VEGFR II monoclonal antibody, isotype IgG2b/κ
Regarding B6, the binding result in experiment [6] is listed as “binds”.

B7: BCU-3D6-C9 (antibody, V domains shown)
VH: QIQLVQSGPELKKPGESVKISCKASEYTFTDYAIHWVKQAPGKGLKWMGWINTYTGKPTYADDFKGRFVFSLEASASTANLQISNLKNEDTATYFCARDYGGYGERRDYFDYWGQGVMVTVSS
VL: DIQMTQSPASLSASLGETVTIECRVSEDIYNGLAWYQQKPGKSPQFLIYNANRLHTGVPSRFSGSGSGTQFSLKINSLQSEDVANYFCQQYYDYPLTFGSATKLEIK
notes: Rat hybridoma anti-human VEGFR II monoclonal antibody
Consider B7, for which the binding result in experiment [6] is recorded as “binds”.

B8: BFU-3E2-B9-B8 (antibody, V domains shown)
VH: EVQLQQSGPELQRPGASVKLSCKASGYTFTESYMYWVKQRPEQSLELIGRIDPEDGSTDYVEKFKNKATLTADTSSNTAYMQLSSLTSEDSATYFCARFGARSYFYPMDAWGQGTSVTVSS
VL: DTVLTQPPALAVSPGERVSISCRASESVSTLMHWYQQKPGQQPRLLIYGASNLESGVPARFSGSGSGTDFTLTIDPVEADDTATYFCQQSWNDPWTFGGGTKLELK
Consider B8, for which, in the experiment with Human PDGF-BB [4], the Kd was at most 0.15 pM and the kon was at least 1e+07 M⁻¹ s⁻¹. Also, in the experiment with Human PDGF-BB [7], the “Phospho-Tyr751/hPDGF-BB Neutralization” value is 0.642 nM and the “huPDGF-BB Neutralization Potency (nM) in NIH-3T3 Cells” value was determined as 0.247 nM. The molecule further registered an IC50 with Human PDGF-BB [8] of over 50000 pM.

B9: BFU-11A8-D6-C3 (antibody, V domains shown)
VH: B8 VH with M34I, S91T
VL: B8 VL with P7S, A9T, S21P
Regarding B9, in the experiment with Human PDGF-BB [4], the Kd is at most 0.047 pM and the kon is 2.1e+07 M⁻¹ s⁻¹. In the experiment with Human PDGF-BB [7], the “Phospho-Tyr751/hPDGF-BB Neutralization” value is 0.736 nM and the “huPDGF-BB Neutralization Potency (nM) in NIH-3T3 Cells” value amounted to 0.344 nM. In addition, in the experiment with Human PDGF-BB [8], the IC50 stood at 7100 pM.
